Experimental data: PMC3206007, “Crystal Structure of the Complex mAb 17.2 and the C-Terminal Region of Trypanosoma cruzi P2β Protein: Implications in Cross-Reactivity” (PLoS Neglected Tropical Diseases, 2011)

Target: T1, human β1 adrenergic receptor (Homo sapiens, UniProt P08588)
T1 construct: also called β1-AR; ß1-AR; source: HEK cells, stably transfected (HEK-β1), on cells
Assay: flow cytometry on cells; HEK and HEK-β1 cells incubated with mAb 17.2 (500 nM) 1 h at room temperature in supplemented DMEM; Cy3-conjugated goat anti-mouse IgG; propidium iodide to exclude dead cells
Settings: one partner purified

T1 sequence (P08588 whole entry): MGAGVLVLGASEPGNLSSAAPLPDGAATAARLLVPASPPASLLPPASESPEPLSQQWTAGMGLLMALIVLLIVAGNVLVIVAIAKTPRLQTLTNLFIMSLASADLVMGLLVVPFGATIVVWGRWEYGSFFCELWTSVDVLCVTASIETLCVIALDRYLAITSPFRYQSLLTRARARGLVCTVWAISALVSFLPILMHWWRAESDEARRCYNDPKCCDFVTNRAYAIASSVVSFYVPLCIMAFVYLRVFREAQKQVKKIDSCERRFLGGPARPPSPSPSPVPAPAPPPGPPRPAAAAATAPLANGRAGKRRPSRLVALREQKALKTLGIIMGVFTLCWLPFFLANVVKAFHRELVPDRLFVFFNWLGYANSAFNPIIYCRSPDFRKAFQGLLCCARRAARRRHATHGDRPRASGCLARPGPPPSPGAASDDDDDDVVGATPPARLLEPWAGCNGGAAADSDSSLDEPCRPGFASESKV

B1: murine monoclonal antibody 17.2 (antibody, V domains shown)
VH: EVQLEESGGRLVQPKGSLKLSCAASGFSFNTNAMNWVRQAPGKGLEWVARIRSKINNYSTYYADSVKDRFTISRDDSQSMLYLQMNNLKTEDTAMYYCVRGTTYWGQGTLVTVSA
VL: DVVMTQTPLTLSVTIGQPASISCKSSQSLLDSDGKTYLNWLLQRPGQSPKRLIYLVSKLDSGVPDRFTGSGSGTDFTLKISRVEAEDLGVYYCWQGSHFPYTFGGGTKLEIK
notes: variable and CH1 domains as the heavy chain of m1 (PDB 3SGE, 3SGD); the rest is the mouse IgG1 constant region, not in the entries; as the light chain of m1 (kappa; PDB 3SGE, 3SGD); Whole IgG1, kappa; also called mAb 17.2; source: purified from ascitic fluid (40% ammonium sulphate, DEAE-Sephacel)
B1: binds.
